Results: PMC9637899

T1: ElpQ_(181–343)
T1 chain: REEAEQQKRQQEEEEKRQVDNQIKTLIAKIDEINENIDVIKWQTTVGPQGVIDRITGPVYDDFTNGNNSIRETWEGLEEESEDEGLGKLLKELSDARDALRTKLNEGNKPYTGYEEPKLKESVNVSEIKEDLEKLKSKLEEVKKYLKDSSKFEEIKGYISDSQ

B1: activated C1s–CCP1–CCP2–SP, P09871 E326A; D358A; K575A; R576A; R581A; K583A (protein)
chain: EPTMYGEILSPNYPQAYPSEVEKSWDIEVPEGYGIHLYFTHLDIELSENCAYDSVQIISGDTEEGRLCGQRSSNNPHSPIVEEFQVPYNKLQVIFKSDFSNEERFTGFAAYYVATDINECTDFVDVPCSHFCNNFIGGYFCSCPPEYFLHDDMKNCGVNCSGDVFTALIGEIASPNYPKPYPENSRCEYQIRLEKGFQVVVTLRREDFDVEAADSAGNCLDSLVFVAGDRQFGPYCGHGFPGPLNIETKSNALDIIFQTDLTGQKKGWKLRYHGDPMPCPKEDTPNSVWEPAKAKYVFRDVVQITCLDGFAVVEGRVGATSFYSTCQSNGKWSNSKLKCQPVACGIPESIENGKVEDPESTLFGSVIRYTCEEPYYYMENGGGGEYHCAGNGSWVNEVLGPELPKCVPVCGVPREPFEEKQRIIGGSDADIKNFPWQVFFDNPWAGGALINEYWVLTAAHVVEGNREPTMYVGSTSVQTSRLAKSKMLTPEHVFIHPGWKLLEVPEGRTNFDNDIALVRLKDPVKMGPTVSPICLPGTSSDYNLMDGDLGLISGWGRTEAADRAVALAAARLPVAPLRKCKEVKVEKPTADAEAYVFTPNMICAGGEKGMDSCKGDSGGAFAVQDPNDKTKFYAAGLVSWGPQCGTYGLYTRVKNYVDWIMKTMQENSTPRED
B2: activated C1s–CCP1–CCP2–SP, P09871 K575A; R576A; R581A; K583A (protein)
chain: EPTMYGEILSPNYPQAYPSEVEKSWDIEVPEGYGIHLYFTHLDIELSENCAYDSVQIISGDTEEGRLCGQRSSNNPHSPIVEEFQVPYNKLQVIFKSDFSNEERFTGFAAYYVATDINECTDFVDVPCSHFCNNFIGGYFCSCPPEYFLHDDMKNCGVNCSGDVFTALIGEIASPNYPKPYPENSRCEYQIRLEKGFQVVVTLRREDFDVEAADSAGNCLDSLVFVAGDRQFGPYCGHGFPGPLNIETKSNALDIIFQTDLTGQKKGWKLRYHGDPMPCPKEDTPNSVWEPAKAKYVFRDVVQITCLDGFEVVEGRVGATSFYSTCQSNGKWSNSKLKCQPVDCGIPESIENGKVEDPESTLFGSVIRYTCEEPYYYMENGGGGEYHCAGNGSWVNEVLGPELPKCVPVCGVPREPFEEKQRIIGGSDADIKNFPWQVFFDNPWAGGALINEYWVLTAAHVVEGNREPTMYVGSTSVQTSRLAKSKMLTPEHVFIHPGWKLLEVPEGRTNFDNDIALVRLKDPVKMGPTVSPICLPGTSSDYNLMDGDLGLISGWGRTEAADRAVALAAARLPVAPLRKCKEVKVEKPTADAEAYVFTPNMICAGGEKGMDSCKGDSGGAFAVQDPNDKTKFYAAGLVSWGPQCGTYGLYTRVKNYVDWIMKTMQENSTPRED

Target: T1, ElpQ_(181–343)
Assay: SPR
Conditions: chain shown with the change; steady-state response at the highest analyte concentration plotted (about 5e-7 M on the x axis); ElpQ181-343 immobilized, C1s construct injected; parent: est. 140; read off a plot

| Binder | response |
| --- | --- |
| B1 | 0 RU |
| B2 | 8 RU |
